In article PMC7863765 (Journal of Molecular Biology, 2021):

B1: untagged full-length human 14-3-3ζ (natural protein, UniProt P63104 1-245, looked up)
chain: MDKNELVQKAKLAEQAERYDDMAACMKSVTEQGAELSNEERNLLSVAYKNVVGARRSSWRVVSSIEQKTEGAEKKQQMAREYREKIETELRDICNDVLSLLEKFLIPNASQAESKVFYLKMKGDYYRYLAEVAAGDDKKGIVDQSQQAYQEAFEISKKEMQPTHPIRLGLALNFSVFYYEILNSPEKACSLAKTAFDEAIAELDTLSEESYKDSTLIMQLLRDNLTLWTSDTQGDEAEAGEGGEN
notes: human 14-3-3 protein zeta, full length, untagged; also called wild-type dimeric 14-3-3ζ
B2: full-length human 14-3-3ε (as used in the SEC titration) (natural protein, UniProt P62258 1-255, looked up)
chain: MDDREDLVYQAKLAEQAERYDEMVESMKKVAGMDVELTVEERNLLSVAYKNVIGARRASWRIISSIEQKEENKGGEDKLKMIREYRQMVETELKLICCDILDVLDKHLIPAANTGESKVFYYKMKGDYHRYLAEFATGNDRKEAAENSLVAYKAASDIAMTELPPTHPIRLGLALNFSVFYYEILNSPDRACRLAKAAFDDAIAELDTLSEESYKDSTLIMQLLRDNLTLWTSDMQGDGEEQNKEALQDVEDENQ
notes: human 14-3-3 protein epsilon, full length; Same construct as m21 (TEV-cleavable His6-tag)

Target: T1, polyphosphorylated full-length SARS-CoV-2 nucleocapsid protein pN.1-419 (SARS-CoV-2, UniProt P0DTC9 1-419)
T1 construct: also called phosphorylated N; polyphosphorylated N; not shown: His6, N-terminal, kept
Assay: SEC
Details: both partners purified

Binder | binding result | Kd [µM] | stoichiometry N
B1 | binds | – | –
B2 | – | 10.7 | ~1 14-3-3ε chains per pN.1-419 chain (2:2)
